# Reference: patent US20240368250A1 (Ablynx, published 2024)
# Changes are numbered by the printed parent chain. Numbers in names are those of the source.
# B1: TPP-66144 (Fc fusion)
# chain 1: DVQLVESGGGVVQAGGSLSISCAASGGSLSNYVLGWFRQAPGKEREFVAAINWRGDITIGPPNVEGRFTISRDNAKNTGYLQMNSLAPDDTALYYCGAGTPLNPGAYIYDWSYDYWGRGTLVTVSSDKTHTCPPCPAPEAAGGPSVFLFPPKPKDTLMISRTPEVTCVVVDVSQEDPEVQFNWYVDGVEVHNAKTKPREEQFNSTYRVVSVLTVLHQDWLNGKEYKCKVSNKGLPSSIEKTISKAKGQPREPQVYTLPPCQEEMTKNQVSLWCLVKGFYPSDIAVEWESNGQPENNYKTTPPVLDSDGSFFLYSKLTVDKSRWQEGNVFSCSVMHEALHNHYTQKSLSLSLGGGGGSGGGSEVQLVESGGGVVQPGGSLRLSCAASGFTFRSFGMSWVRQAPGKGPEWVSSISGSGSDTLYADSVKGRFTISRDNSKNTLYLQMNSLRPEDTALYYCTIGGSLSRSSQGTLVTVSSA
# chain 2: DVQLVESGGGVVQAGGSLSISCAASGGSLSNYVLGWFRQAPGKEREFVAAINWRGDITIGPPNVEGRFTISRDNAKNTGYLQMNSLAPDDTALYYCGAGTPLNPGAYIYDWSYDYWGRGTLVTVSSDKTHTCPPCPAPEAAGGPSVFLFPPKPKDTLMISRTPEVTCVVVDVSQEDPEVQFNWYVDGVEVHNAKTKPREEQFNSTYRVVSVLTVLHQDWLNGKEYKCKVSNKGLPSSIEKTISKAKGQPREPQVCTLPPSQEEMTKNQVSLSCAVKGFYPSDIAVEWESNGQPENNYKTTPPVLDSDGSFFLVSKLTVDKSRWQEGNVFSCSVMHEALHNRFTQKSLSLSLG
# notes: IgG4 FALA Fc knob-in-hole, C-terminal ALB23002 via 9GS linker
# B2: TPP-66149 (Fc fusion)
# chain 1: DVQLVESGGGVVQAGGSLSISCAASGGSLSNYVLGWFRQAPGKEREFVAAINWRGDITIGPPNVEGRFTISRDNAKNTGYLQMNSLAPDDTALYYCGAGTPLNPGAYIYDWSYDYWGRGTLVTVSSDKTHTCPPCPAPEAAGGPSVFLFPPKPKDTLMISRTPEVTCVVVDVSQEDPEVQFNWYVDGVEVHNAKTKPREEQFNSTYRVVSVLTVLHQDWLNGKEYKCKVSNKGLPSSIEKTISKAKGQPREPQVYTLPPCQEEMTKNQVSLWCLVKGFYPSDIAVEWESNGQPENNYKTTPPVLDSDGSFFLYSKLTVDKSRWQEGNVFSCSVMHEALHNHYTQKSLSLSLGGGGGSGGGGSGGGGSGGGGSGGGGSGGGGSGGGGSEVQLVESGGGVVQPGDSLRLSCAASGGTFSTYVMGWFRQAPGKEREFVSAISQNSIHTYYANSVKGRFTISRDNSKNTVYLQLNSLRPEDTALYYCAASRFTSWYTADYEYDYWGQGTLVTVSSA
# chain 2: B1 chain 2
# notes: IgG4 FALA Fc knob-in-hole, C-terminal T023500029 via 35GS
# B3: TPP-66151 (Fc fusion)
# chain 1: B1 chain 2 with C255Y, S260C, S272W, A274L, V313Y, R341H, F342Y
# chain 2: DVQLVESGGGVVQAGGSLSISCAASGGSLSNYVLGWFRQAPGKEREFVAAINWRGDITIGPPNVEGRFTISRDNAKNTGYLQMNSLAPDDTALYYCGAGTPLNPGAYIYDWSYDYWGRGTLVTVSSDKTHTCPPCPAPEAAGGPSVFLFPPKPKDTLMISRTPEVTCVVVDVSQEDPEVQFNWYVDGVEVHNAKTKPREEQFNSTYRVVSVLTVLHQDWLNGKEYKCKVSNKGLPSSIEKTISKAKGQPREPQVCTLPPSQEEMTKNQVSLSCAVKGFYPSDIAVEWESNGQPENNYKTTPPVLDSDGSFFLVSKLTVDKSRWQEGNVFSCSVMHEALHNRFTQKSLSLSLGGGGGSGGGGSGGGGSGGGGSGGGGSGGGGSGGGGSVKVKFWPRGEEKVVDTSKIAWVLRADKTVMFKYDDNGKKGYGVVLEKDAPKELLDMLARAEREK
# B4: TPP-66148 (Fc fusion)
# chain 1: DVQLVESGGGVVQAGGSLSISCAASGGSLSNYVLGWFRQAPGKEREFVAAINWRGDITIGPPNVEGRFTISRDNAKNTGYLQMNSLAPDDTALYYCGAGTPLNPGAYIYDWSYDYWGRGTLVTVSSDKTHTCPPCPAPEAAGGPSVFLFPPKPKDTLMISRTPEVTCVVVDVSQEDPEVQFNWYVDGVEVHNAKTKPREEQFNSTYRVVSVLTVLHQDWLNGKEYKCKVSNKGLPSSIEKTISKAKGQPREPQVYTLPPCQEEMTKNQVSLWCLVKGFYPSDIAVEWESNGQPENNYKTTPPVLDSDGSFFLYSKLTVDKSRWQEGNVFSCSVMHEALHNHYTQKSLSLSLGGGGGSGGGGSGGGGSGGGGSGGGGSGGGGSGGGGSEVQLVESGGGVVQPGGSLRLSCAASGLTFSSYAMGWFRQAPGKERERVVSISRGGGYTYYADSVKGRFTISRDNSKNTVYLQMNSLRPEDTALYYCAAARYWATGSEYEFDYWGQGTLVTVSSA
# chain 2: B1 chain 2
# notes: IgG4 FALA Fc knob-in-hole, C-terminal ALBX00002 via 35GS
# B5: TPP-66147 (Fc fusion)
# chain 1: DVQLVESGGGVVQAGGSLSISCAASGGSLSNYVLGWFRQAPGKEREFVAAINWRGDITIGPPNVEGRFTISRDNAKNTGYLQMNSLAPDDTALYYCGAGTPLNPGAYIYDWSYDYWGRGTLVTVSSDKTHTCPPCPAPEAAGGPSVFLFPPKPKDTLMISRTPEVTCVVVDVSQEDPEVQFNWYVDGVEVHNAKTKPREEQFNSTYRVVSVLTVLHQDWLNGKEYKCKVSNKGLPSSIEKTISKAKGQPREPQVYTLPPCQEEMTKNQVSLWCLVKGFYPSDIAVEWESNGQPENNYKTTPPVLDSDGSFFLYSKLTVDKSRWQEGNVFSCSVMHEALHNHYTQKSLSLSLGGGGGSGGGGSGGGGSGGGGSGGGGSGGGGSGGGGSEVQLVESGGGVVQPGGSLRLSCAASGFTFRSFGMSWVRQAPGKGPEWVSSISGSGSDTLYADSVKGRFTISRDNSKNTLYLQMNSLRPEDTALYYCTIGGSLSRSSQGTLVTVSSA
# chain 2: B1 chain 2
# notes: IgG4 FALA Fc knob-in-hole, C-terminal ALB23002 via 35GS
# B6: TPP-66174 (Fc fusion)
# chain 1: B5 chain 1 with M158Y, S160T, T162E
# chain 2: B1 chain 2 with M158Y, S160T, T162E
# notes: IgG4 FALA Fc (YTE) knob-in-hole, C-terminal ALB23002 via 35GS; also called ALB23002 ISVD-Fc(YTE) polypeptide
# B7: T-0263-00_TP117 (antibody, human IgG1, kappa)
# heavy 1: not shown
# heavy 2: EVQLVESGGGLVQPGGSLRLSCAASGFNIRDTYIHWVRQAPGKGLEWVARIYPTQGYTRYADSVKGRFTISADTSKNTAYLQMNSLRAEDTAVYYCSRWGGEGFYAMDYWGQGTLVTVSSASTKGPSVFPLAPSSKSTSGGTAALGCLVKDYFPEPVTVSWNSGALTSGVHTFPAVLQSSGLYSLSSVVTVPSSSLGTQTYICNVNHKPSNTKVDKKVEPKSCDKTHTCPPCPAPELLGGPSVFLFPPKPKDTLMISRTPEVTCVVVDVSHEDPEVKFNWYVDGVEVHNAKTKPREEQYNSTYRVVSVLTVLHQDWLNGKEYKCKVSNKALPAPIEKTISKAKGQPREPQVCTLPPSRDELTKNQVSLSCAVKGFYPSDIAVEWESNGQPENNYKTTPPVLDSDGSFFLVSKLTVDKSRWQQGNVFSCSVMHEALHNRFTQKSLSLSPG
# light: not shown
# notes: Full-length IgG1 with knob-in-hole mutations (hole chain H435R, Y436F), no C-terminal fusion
# B8: T-0263-00_TP118 (antibody, human IgG1, kappa)
# heavy 1: not shown
# heavy 2: B7 heavy 2
# light: not shown
# notes: Full-length IgG1 knob-in-hole with a C-terminal irrelevant ISVD (9GS) on chain 1; control of TP121
# Target: Human serum albumin (HSA; Sigma-Aldrich Cat No. A8763) (human, UniProt P02768 25-609)
# Assay: SPR Biacore 8K+, HSA on C1 chip, pH 7.4, 1:1 fit
Binder,Kd,koff,kon
B1,51.6 nM,0.00124 s⁻¹,24000 M⁻¹ s⁻¹
B2,8.2 nM,0.000511 s⁻¹,62300 M⁻¹ s⁻¹
B3,2.61 nM,0.00031 s⁻¹,119000 M⁻¹ s⁻¹
B4,5.1 nM,0.000247 s⁻¹,48500 M⁻¹ s⁻¹
B5,27.1 nM,0.00119 s⁻¹,43800 M⁻¹ s⁻¹
B6,21.5 nM,0.00104 s⁻¹,48400 M⁻¹ s⁻¹

# Target: Mouse serum albumin (MSA; Albumin Bioscience Cat No. 2601) (mouse, UniProt P07724 25-608)
# Assay: SPR Biacore 8K+, MSA on C1 chip, pH 7.4, 1:1 fit (off-rate only)
row,Binder,koff
1,B1,0.0842 s⁻¹
2,B2,0.000503 s⁻¹
3,B3,0.00175 s⁻¹
4,B4,0.00187 s⁻¹
5,B5,0.075 s⁻¹
6,B6,0.0819 s⁻¹

# Target: T1, Human FcRn (biotinylated human FcRn) (human, UniProt P61769 21-119)
# T1 construct: Biotinylated human FcRn captured on a Series S Sensor Chip SA; also called human neonatal Fc receptor; hFcRn
# Assay: SPR Biacore 8K+, biotinylated hFcRn on SA chip (~700 RU), pH 6.0, bivalent analyte fit
Binder,ka2,kd2
B7,3.1e-05 1/RUs,0.001 s⁻¹
B8,2.3e-05 1/RUs,0.00054 s⁻¹

# Target: T1, Human FcRn (biotinylated human FcRn)
# Assay: SPR Biacore 8K+, biotinylated hFcRn on SA chip (~500-600 RU), pH 6.0, bivalent analyte fit;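 further: analytes were Fc proteins binding to biotinylated human FcRn captured on a Series S streptavidin sensor chip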
Binder,KD2,ka2,kd2
B1,2.86 M,0.017 1/RUs,0.0485 s⁻¹
B2,3.39 M,4.37e-05 1/RUs,0.000148 s⁻¹
B3,2.08 M,6.98e-05 1/RUs,0.000145 s⁻¹
B4,2.14 M,3.33e-05 1/RUs,7.12e-05 s⁻¹
B5,3.17 M,3.3e-05 1/RUs,0.000105 s⁻¹
B6,2.04 M,55.8 1/RUs,114 s⁻¹

# Target: T1, Human FcRn (biotinylated human FcRn)
# Assay: SPR Biacore 8K+, biotinylated hFcRn on SA chip (~700 RU), pH 6.0, bivalent analyte fit (KD1)
row,Binder,Kd
1,B7,1300 nM
2,B8,1200 nM

# Target: T1, Human FcRn (biotinylated human FcRn)
# Assay: SPR Biacore 8K+, biotinylated hFcRn on SA chip (~700 RU), pH 6.0, bivalent analyte fit (ka1)
row,Binder,kon
1,B7,120000 M⁻¹ s⁻¹
2,B8,120000 M⁻¹ s⁻¹

# Target: T1, Human FcRn (biotinylated human FcRn)
# Assay: SPR Biacore 8K+, biotinylated hFcRn on SA chip (~700 RU), pH 6.0, bivalent analyte fit (kd1)
row,Binder,koff
1,B7,0.16 s⁻¹
2,B8,0.15 s⁻¹

# Target: T1, Human FcRn (biotinylated human FcRn)
# Assay: SPR Biacore 8K+, biotinylated hFcRn on SA chip (~500-600 RU), pH 6.0, bivalent analyte fit (KD1)
row,Binder,Kd
1,B1,103 nM
2,B2,1200 nM
3,B3,1460 nM
4,B4,1030 nM
5,B5,1060 nM
6,B6,121 nM

# Target: T1, Human FcRn (biotinylated human FcRn)
# Assay: SPR Biacore 8K+, biotinylated hFcRn on SA chip (~500-600 RU), pH 6.0, bivalent analyte fit (ka1)
row,Binder,kon
1,B1,808000 M⁻¹ s⁻¹
2,B2,87000 M⁻¹ s⁻¹
3,B3,102000 M⁻¹ s⁻¹
4,B4,107000 M⁻¹ s⁻¹
5,B5,101000 M⁻¹ s⁻¹
6,B6,65000 M⁻¹ s⁻¹

# Target: T1, Human FcRn (biotinylated human FcRn)
# Assay: SPR Biacore 8K+, biotinylated hFcRn on SA chip (~500-600 RU), pH 6.0, bivalent analyte fit (kd1)
row,Binder,koff
1,B1,0.0834 s⁻¹
2,B2,0.104 s⁻¹
3,B3,0.148 s⁻¹
4,B4,0.11 s⁻¹
5,B5,0.107 s⁻¹
6,B6,0.00786 s⁻¹
